{"source": "the supplement of paper PMC9732359", "note": "± gives the uncertainty stated by the source.", "data": [{"assay": "protein stability index of a GFP-peptide fusion (yeast GPS) (PSI 1-4); higher = more stable; sorted into four equal gates, so the index is relative within each strain", "settings": "san1∆", "how_it_was_run": "(§1)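 Plasmids isolated from each sorting gate were PCR-amplified and Illumina-sequenced, and barcodes assigned the reads to strains. The gates, four of equal size, were set by GFP/Cherry fluorescence ratio on mid-log cultures in leucine-free medium. These cultures were yeast carrying a pooled library of tiled 17-residue yeast protein peptides fused downstream of GFP on a plasmid that also expresses Cherry. The protein stability index is the sum of every gate's read frequency times its gate number.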", "values": [{"sequence": "TTRVGGGGAARRQAVDV [RPS5]", "protein stability index": "1.73 ± 0.28"}]}, {"assay": "protein stability index of a GFP-peptide fusion (yeast GPS) (PSI 1-4); higher = more stable; sorted into four equal gates, so the index is relative within each strain", "settings": "ubr1∆", "how_it_was_run": "as §1", "values": [{"sequence": "TDAGVLALKLELLDFLT [YJL039C/NUP192]", "protein stability index": "3.02 ± 0.046"}, {"sequence": "TDGDSILYYDVLFITPD [BRR2]", "protein stability index": "2.94 ± 0.051"}, {"sequence": "TDGELDIEFINSLLTIV [RPC34]", "protein stability index": "2.81 ± 0.091"}, {"sequence": "TDLHLPKKEYDDDAVRR [NSL1]", "protein stability index": "3.13 ± 0.11"}, {"sequence": "TDLMSIVQELLDKNLIK [RPC34]", "protein stability index": "3.15 ± 0.14"}, {"sequence": "TDLRFQSSAIGALQESV [HHT1]", "protein stability index": "1.32 ± 0.23"}, {"sequence": "TDVLEISKQRTFAVILF [YMR129W/POM152]", "protein stability index": "2.21 ± 0.041"}, {"sequence": "TDYLYRRLHDENLMVQR [YCS4]", "protein stability index": "2.38 ± 0.076"}, {"sequence": "TEAGFFAIRDDRDHINP [RPT4]", "protein stability index": "3.27 ± 0.045"}, {"sequence": "TEEELQAAVPDNAEDDS [BRN1]", "protein stability index": "3.02 ± 0.055"}, {"sequence": "TEELQTQYATSQKTKTI [SMC2]", "protein stability index": "3.18 ± 0.093"}, {"sequence": "TEHSKVTRFDEKQIEEL [SRB6]", "protein stability index": "3.26 ± 0.07"}, {"sequence": "TEKLSPLASEESLTNSN [YGL100W/SEH1]", "protein stability index": "3.32 ± 0.075"}, {"sequence": "TELMNRSPLVTPMDESS [SRP72]", "protein stability index": "2.59 ± 0.062"}, {"sequence": "TENAIEEKVIERAAQKL [ISW2]", "protein stability index": "2.79 ± 0.051"}, {"sequence": "TENDIKALQSIGQLIGE [RPT4]", "protein stability index": "3.23 ± 0.045"}, {"sequence": "TEQQIEVPEGVTVSIKS [RPL9A]", "protein stability index": "2.85 ± 0.043"}, {"sequence": "TESNELIQKLQNSANNN [IRR1]", "protein stability index": "3.09 ± 0.17"}, {"sequence": "TFDGIRMSSEEVNSLLL [GRR1]", "protein stability index": "2.92 ± 0.074"}, {"sequence": "TFGTKHAADSQNNKPSF [YLR335W/NUP2]", "protein stability index": "3.05 ± 0.2"}, {"sequence": "TFHDELNLKFKEKWPSL [YML103C/NUP188]", "protein stability index": "3.09 ± 0.098"}, {"sequence": "TFPPEVLARISPELSLQ [RRP43]", "protein stability index": "2.67 ± 0.071"}, {"sequence": "TFSWLNAELLDYLFHLL [YLR018C/POM34]", "protein stability index": "1.4 ± 0.044"}, {"sequence": "TFTKKCLENARSQISEK [SIR4]", "protein stability index": "3.07 ± 0.041"}, {"sequence": "TGESEESSSEDDYEDQD [IRR1]", "protein stability index": "3.57 ± 0.26"}, {"sequence": "TGETYQRFVGHKSDVMS [ASC1]", "protein stability index": "2.94 ± 0.093"}, {"sequence": "TGKIVDVVGTLSRNGKP [FAS1]", "protein stability index": "3.44 ± 0.071"}, {"sequence": "TGLCSFDYSVILNSIPA [YJL039C/NUP192]", "protein stability index": "1.28 ± 0.045"}, {"sequence": "TGLNGSGKSNILDAICF [SMC2]", "protein stability index": "3.31 ± 0.054"}, {"sequence": "TGNFIIPSGNVWNYTFM [PRP8]", "protein stability index": "3.18 ± 0.12"}, {"sequence": "TGNNLYDRNSNNNHKDK [SWI1]", "protein stability index": "3.12 ± 0.039"}, {"sequence": "TGVVYNVTKSSVGVIIN [RPL21A]", "protein stability index": "2.18 ± 0.067"}, {"sequence": "TGWISKCTAEGIKVSLL [RPC25]", "protein stability index": "2.95 ± 0.15"}, {"sequence": "THAQRTGLSQIPNRRFT [PRP8]", "protein stability index": "2.88 ± 0.043"}, {"sequence": "THLEIEPFTILGAVAGL [RET1]", "protein stability index": "2.04 ± 0.048"}, {"sequence": "THPHAADGSSYMEQGNN [SKI6]", "protein stability index": "3.07 ± 0.047"}, {"sequence": "TIIFIDELDAIGTKRFD [RPT5]", "protein stability index": "2.42 ± 0.059"}, {"sequence": "TILCTPTGGKAKLSEGT [RPS27A]", "protein stability index": "2.74 ± 0.056"}, {"sequence": "TINEMMKHLGRSEGNPV [FAS2]", "protein stability index": "2.94 ± 0.072"}, {"sequence": "TISILAAPSGNYKQLTL [RRP43]", "protein stability index": "1.89 ± 0.033"}, {"sequence": "TITNSSSSSDIIVPDLI [YML103C/NUP188]", "protein stability index": "3.05 ± 0.056"}, {"sequence": "TIWCVCDSYLDADKELS [BRR2]", "protein stability index": "2.75 ± 0.072"}, {"sequence": "TIYYVDSDGTRLKGDIF [PRE2]", "protein stability index": "3.16 ± 0.057"}, {"sequence": "TKENLEVSGENVVEADL [QCR2]", "protein stability index": "2.8 ± 0.14"}, {"sequence": "TKFSKLIGRPPLLVPGM [FAS1]", "protein stability index": "1.65 ± 0.041"}, {"sequence": "TKHLMPQDLTFNAGSNP [RPB7]", "protein stability index": "2.79 ± 0.24"}, {"sequence": "TKKSKLESTKAETDYVD [DSN1]", "protein stability index": "3.03 ± 0.059"}, {"sequence": "TKLYFDVNEKIRFRIER [RPC25]", "protein stability index": "2.92 ± 0.17"}, {"sequence": "TKMFEDRREKAERTMSK [SMC2]", "protein stability index": "3.54 ± 0.088"}, {"sequence": "TKSSLNDLDYDLIADTI [YML103C/NUP188]", "protein stability index": "2.52 ± 0.053"}, {"sequence": "TKTILSGTDGSTIGILL [SRP72]", "protein stability index": "3.01 ± 0.065"}, {"sequence": "TLENTLKAAFVAIGNTY [RPS2]", "protein stability index": "1.94 ± 0.091"}, {"sequence": "TLFCCLLRSRLATRRVL [RPO21]", "protein stability index": "1.2 ± 0.05"}, {"sequence": "TLKNRGLPLGIAEEKMW [YGR119C/NUP57]", "protein stability index": "1.89 ± 0.039"}, {"sequence": "TLSNAERAKNVNGLLQV [GAL11]", "protein stability index": "3 ± 0.098"}, {"sequence": "TLSPNVTDSSLLKLLTR [GRR1]", "protein stability index": "2.82 ± 0.042"}, {"sequence": "TLTKISMLFKTSQKMTS [MCD1]", "protein stability index": "3.53 ± 0.19"}, {"sequence": "TLVNKSTGLKNASDALK [RPS1B]", "protein stability index": "3.24 ± 0.075"}, {"sequence": "TMIKKTTLVTRREELQQ [SMC3]", "protein stability index": "2.55 ± 0.18"}, {"sequence": "TMMTVEEKPDVTYSDVG [RPT1]", "protein stability index": "2.3 ± 0.055"}, {"sequence": "TMRKISSETDDDHSQVI [DSN1]", "protein stability index": "3.15 ± 0.055"}, {"sequence": "TMYMEVYTAIYNYCVNK [CDC53]", "protein stability index": "1.7 ± 0.031"}, {"sequence": "TNFKEEITDASLNLQYV [YML103C/NUP188]", "protein stability index": "3.06 ± 0.087"}, {"sequence": "TNHVLEVFSVLGIEAAR [RPO31]", "protein stability index": "3.02 ± 0.24"}, {"sequence": "TNILTKVDINADSAVNR [PRP28]", "protein stability index": "3.31 ± 0.059"}, {"sequence": "TNKDNKAELIKPIQNGE [ARP9]", "protein stability index": "3.16 ± 0.072"}, {"sequence": "TNLGQPHSLATKTTGKC [RPS2]", "protein stability index": "2.5 ± 0.11"}, {"sequence": "TNLSGGEKTLSSLALVF [SMC4]", "protein stability index": "3.37 ± 0.054"}, {"sequence": "TNNMEKIIEDLRQKHEF [SMC2]", "protein stability index": "3.15 ± 0.033"}, {"sequence": "TNSHLPAGKQVEISLVN [FAS1]", "protein stability index": "3.12 ± 0.084"}, {"sequence": "TNSTYNPASATDNMSGR [YJL039C/NUP192]", "protein stability index": "2.56 ± 0.052"}, {"sequence": "TNVEDPLAKKQTVRLIK [SIR2]", "protein stability index": "2.96 ± 0.06"}, {"sequence": "TNVQRIAAYIRRHRNPD [SMC1]", "protein stability index": "3.04 ± 0.16"}, {"sequence": "TPAMIPYPGSPMHSIMP [DSN1]", "protein stability index": "2.846 ± 0.025"}, {"sequence": "TPKITAAEKSFKPPKNK [SEC65]", "protein stability index": "3.14 ± 0.12"}, {"sequence": "TPSQIGVLLRDAHGVTQ [RPS13]", "protein stability index": "2.05 ± 0.037"}, {"sequence": "TPSTETAASVFKELCYE [PRE3]", "protein stability index": "1.84 ± 0.038"}, {"sequence": "TQATSEDGTSASFQIVE [RPC19]", "protein stability index": "3.12 ± 0.068"}, {"sequence": "TQGGNVNLDNTAVGKAA [RPT5]", "protein stability index": "3.17 ± 0.038"}, {"sequence": "TQKRTHVLKKNPLKNKQ [RPL4A]", "protein stability index": "2.99 ± 0.14"}, {"sequence": "TQNSRHYMVHEALNLLK [LIN1]", "protein stability index": "3.07 ± 0.064"}, {"sequence": "TQTVSGTPPMLHQRTHK [DSN1]", "protein stability index": "2.98 ± 0.088"}, {"sequence": "TQVALNESEKDQWLEEY [UBP6]", "protein stability index": "2.88 ± 0.055"}, {"sequence": "TRHQNTIHAKRKIVFRC [RPN4]", "protein stability index": "2.64 ± 0.052"}, {"sequence": "TRKAARPQKLRASLVPG [RPL6A]", "protein stability index": "2 ± 0.12"}, {"sequence": "TRKAMLDPLEVHMLDFP [PRP8]", "protein stability index": "3 ± 0.048"}, {"sequence": "TRQSSRNFDTHENYIQD [MCD1]", "protein stability index": "2.69 ± 0.056"}, {"sequence": "TSALSELSGLISSAKLD [QCR2]", "protein stability index": "1.94 ± 0.11"}, {"sequence": "TSGKVELPKKLLNLPPF [SRB8]", "protein stability index": "2.55 ± 0.14"}, {"sequence": "TSKSFSKLLYDDVTCDK [SIN4]", "protein stability index": "3.16 ± 0.039"}, {"sequence": "TSKSLVKRYRLAPTQLS [SIN4]", "protein stability index": "2.66 ± 0.037"}, {"sequence": "TSMTGDANLLEEGETSR [SWI3]", "protein stability index": "3.3 ± 0.041"}, {"sequence": "TSNWEIYKPLLFEIVSN [SRB8]", "protein stability index": "1.23 ± 0.08"}, {"sequence": "TSPEKKDGGDKPPSSAF [YAR002W/NUP60]", "protein stability index": "3.72 ± 0.11"}, {"sequence": "TSPLYMDPGAPLPVETP [SSN2]", "protein stability index": "2.81 ± 0.11"}, {"sequence": "TSPQYIPSPLSSTKPPG [NUT1]", "protein stability index": "2.45 ± 0.029"}, {"sequence": "TSQYGTPSTETAASVFK [PRE3]", "protein stability index": "2.27 ± 0.045"}, {"sequence": "TTIDSLNAELESKLIPQ [SMC3]", "protein stability index": "3.1 ± 0.066"}, {"sequence": "TTLKSVTIASEIYYDPD [RPO21]", "protein stability index": "2.24 ± 0.055"}, {"sequence": "TTLNEMFRYKTNLYKLK [PUP3]", "protein stability index": "2.08 ± 0.1"}, {"sequence": "TTNMNVNNCIWALKSSL [RGR1]", "protein stability index": "1.25 ± 0.046"}, {"sequence": "TTRVGGGGAARRQAVDV [RPS5]", "protein stability index": "1.82 ± 0.17"}]}]}
